# In US20210130452A1 (Merck KGaA, published 2021):
# T1: mouse IL-17F (mouse, UniProt Q7TNI7 29-161)
# T1 sequence (looked up): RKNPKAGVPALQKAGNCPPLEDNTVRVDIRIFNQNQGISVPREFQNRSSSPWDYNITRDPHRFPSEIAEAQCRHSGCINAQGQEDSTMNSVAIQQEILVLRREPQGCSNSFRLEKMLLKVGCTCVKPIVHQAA
# T2: rat IL-17F (rat, UniProt Q5BJ95 29-161)
# T2 sequence (looked up): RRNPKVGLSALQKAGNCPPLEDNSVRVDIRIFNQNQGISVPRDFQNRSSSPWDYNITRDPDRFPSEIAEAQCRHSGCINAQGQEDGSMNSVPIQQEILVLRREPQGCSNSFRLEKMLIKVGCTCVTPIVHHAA
# T3: marmoset IL-17A (marmoset, IL-17A is a disulfide-linked homodimer. One chain is given.)
# T3 chain: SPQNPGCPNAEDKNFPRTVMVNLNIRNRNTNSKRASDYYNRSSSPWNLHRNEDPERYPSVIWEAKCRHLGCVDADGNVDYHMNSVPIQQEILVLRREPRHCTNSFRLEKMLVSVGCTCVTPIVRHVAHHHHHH
# What was measured:
# human IL-17A [1] = target: T4, human IL-17A (human, UniProt Q16552 24-155, biotinylated with Sulfo-NHS-LC-Biotin in the AlphaScreen assays only); experiment: AlphaScreen competition, hIL-17A - IL-17RA-Fc;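 further: receptor Fc-fusion plus Acceptor and streptavidin Donor beads incubated with the mixture for 1 h at room temperature before reading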
# T4 construct: also called hIL-17A; recombinant human IL-17A
# T4 sequence (Q16552 other isoform, or with tags, fused parts or gaps): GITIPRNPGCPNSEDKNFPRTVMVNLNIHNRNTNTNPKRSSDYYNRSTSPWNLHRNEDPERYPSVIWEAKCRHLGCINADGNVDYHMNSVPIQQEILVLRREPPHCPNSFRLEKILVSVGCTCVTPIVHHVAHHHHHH
# Protocol: (§1) To this mixture, the IL-17RA or IL-17RC Fc-fusions, Acceptor beads and the streptavidin Donor beads were added and further incubated for 1 hour at RT.
# human IL-17A [2] = target: T4, human IL-17A; experiment: cell-based or functional assay
# human IL-17A [3] = target: T4, human IL-17A; experiment: SPR Biacore, hIL-17A on chip; purified protein
# human IL-17A [4] = target: T4, human IL-17A; experiment: AlphaScreen competition, hIL-17A - IL-17RC-Fc;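 further: Read-out after 1 h at room temperature with the receptor Fc-fusion, Acceptor beads and streptavidin-coated Donor beads present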
# Protocol: as §1
# mouse IL-17F = target: T1, mouse IL-17F; experiment: ELISA, coated IL-17F;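 further: binding ELISA on coated antigen from various species, with bound Nanobodies revealed by an HRP-linked anti-myc antibody and esTMB substrate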
# Protocol: (§2) Binding of a selected panel of anti-IL-17 Nanobodies to IL-17 of other species was assessed using a binding ELISA. […] HRP (horseradish peroxidase) conjugated anti-myc (Serotec, MCA 2200P) was used for detection using esTMB as substrate.
# rat IL-17F = target: T2, rat IL-17F; experiment: ELISA, coated IL-17F;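 further: binding ELISA on coated antigen from various species, with bound Nanobodies revealed by an HRP-linked anti-myc antibody and esTMB substrate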
# Protocol: as §2
# guinea pig IL-17A = guinea pig IL-17A (guinea pig); experiment: ELISA, coated IL-17A
# Protocol: as §2
# human IL-17A [5] = target: T5, human IL-17A (human, UniProt Q16552 24-155); experiment: ELISA, coated IL-17A
# T5 construct: secreted form (GenBank U32659) expressed in Hek293 with C-terminal 6-His; also called hIL-17A; IL-17A-6HIS
# T5 sequence (Q16552 other isoform, or with tags, fused parts or gaps): as above
# Protocol: as §2
# marmoset IL-17A = target: T3, marmoset IL-17A; experiment: ELISA, coated IL-17A
# Protocol: as §2
Binder,IC50 (human IL-17A [1]) [pM],"IL-17A-induced IL-6 production in HT-1080 cells, Emax (human IL-17A [2]) [%]","IL-17A-induced IL-6 production in HT-1080 cells, IC50 (human IL-17A [2]) [pM]",koff (human IL-17A [3]) [s⁻¹],IC50 (human IL-17A [4]) [pM],OD (mouse IL-17F) [OD],OD (rat IL-17F) [OD],OD (guinea pig IL-17A) [OD],OD (human IL-17A [5]) [OD],OD (marmoset IL-17A) [OD]
"13B05 (VHH, Class 4 Nanobody (cross-reactive: anti-IL-17A, IL-17F and IL-17A/F); not shown: c-myc, His6 tag) VHH: EVQLVESGGRLVQAGGSLRLSCAASGRTFTSYPMGWFRQAPGKEREFVAAISMSGDDTAYTDFVRGRFTISRDDARNTVYLHMTSLKPEDTAVYYCAARTSYDGTYDYIDDYSYWGQGTQVTVSS",118,104,14000,0.0003,249,,,,,
"13E05 (VHH, Class 4 Nanobody (cross-reactive: anti-IL-17A, IL-17F and IL-17A/F); not shown: c-myc, His6 tag) VHH: EVQLVESGGGKVQAGDSLTLSCVASGGTFSNYAAWFRQAPGKDRRELVVSIFRTGSITYTADSVKGRFTASRVNTKNTVYLQMNSLKPEDTAVYYCASAYNPGVGYDYWGQGTQVTVSS",159,101,12300,0.0016,1090,,,,,
"06E11 (VHH, Class 3) VHH: EVQLVESGGGLVQAGGSLRLSCPVSGRAFSRGRLGWFRQAPGKEREFVAVAHWSGAITSYADSVKGRFTFSRDNAKNTMNLQMNSLKPEDTAVYYCAADSETSGNWVYWGQGTQVTVSS",,,,,,0.0215,0.0085,0.006,,
"07B09 (VHH, Class 3) VHH: EVQLVESGGGLVQAGGSLRLSCGASGGTFSSYATGWFRQAPGKEREFVAVLRWSDGHTAYADSVKGRFTISRDGAKNTMYLQMSSLKPEDTAIYYCTTATRPGEWDYWGQGTQVTVSS",,,,,,-0.0015,0.0025,0.009,0.005,0.005
"08H01 (VHH, Class 3) VHH: EVQLVESGGGLVQAGGSLRLSCGASGGTFSSYATGWFRQAPGKEREFVAVLRWSDSHTAYADSVEGRFTISRDGAKNTVYLQMSSLKPEDTAIYYCTTGTRPGEWHYWGQGTQVTVSS",,,,,,-0.0005,0.0045,0.007,,
"24G10 (VHH, Class 3) VHH: EVQLVESGGGLVQAGGSLRLSCGAAGGTFSSYATGWFRQAPGKEREFVAVFRWSDSHTAYADSVKGRFTISRDGAKNTLYLQMSSLKPEDTAIYYCTTATRPGEWDYWGQGTQVTVSS",,,,,,-0.0005,0.0025,0.008,0.009,
"07B11 (VHH, Class 3) VHH: EVQLVESGGGLVQAGGSLRLSCVASGRAFSSYVMGWFRQAPGMEREFVALIRWSDGITGYVDSVKGRFTISRDNAKNTVYLQMNSLKPEDTAVYYCAAAVRPGDYDYWGQGTQVTVSS",,,,,,-0.0005,-0.0105,0.007,0.03,
"24B08 (VHH, Class 3) VHH: EVQLVESGGGLVQAGGSLRLSCAVSGGTFSTYKMGWFRQAPGKEREIVARISTNGPTAYAEFVKGRFTVSRENTKNTVYLQMNSLNIEDTAVYYCAAGYDSLFAGYDYWGQGTQVTVSS",,,,,,-0.0015,0.0035,0.012,0.103,0.129
